Test results: US20070248589A1 (GOVERNMENT OF THE UNITED STATES OF AMERICA AS REPRESENTED …, published 2007)

Columns and labels:
GST-SPATIAL(S) = molecular target: T1, GST-SPATIAL(S) (Mus musculus, UniProt Q7TSD4); experiment: GST pulldown assay with GST-SPATIAL short isoform; format: binding; conditions: 35S-methionine labeled in vitro translated protein
T1 construct: made in house
T1 sequence (Q7TSD4 with tags, fused parts or gaps isoform Q7TSD4-7 limits assumed): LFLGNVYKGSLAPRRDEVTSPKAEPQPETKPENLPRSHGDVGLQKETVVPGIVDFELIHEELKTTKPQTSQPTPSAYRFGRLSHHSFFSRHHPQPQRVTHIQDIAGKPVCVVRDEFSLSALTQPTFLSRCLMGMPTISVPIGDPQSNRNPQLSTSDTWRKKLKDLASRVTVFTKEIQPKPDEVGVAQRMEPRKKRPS
Experimental: (§1) Eighteen cDNA clones identified in the yeast two-hybrid system were tested in an in vitro glutathione-S-transferase (GST) pulldown assay, as described in Ausubel et al., Current Protocols in Molecular Biology, Greene Publishing Associates, updated November 2003, Chapter 20, Analysis of Protein Interactions, Unit 20.2, Affinity Purification of Proteins Binding to GST Fusion Proteins.
(§2) Briefly, a GST-SPATIAL fusion construct was produced by cloning SPATIAL cDNA(s) into pGEx5X1 expression vector using standard molecular cloning techniques. GST or GST-SPATIAL fusion protein were expressed in 1-1000 ml bacterial cultures grown for 3-4 hours until OD600 reached 0.5. Then, plasmid expression was induced for 1.5-4 hours by the addition of ITPG to a final concentration of 0.11 mM. GST or GST-fusion proteins were purified using glutathione-Sepharose beads as described in Ausubel et al., Current Protocols in Molecular Biology, Greene Publishing Associates, updated November 2003, Chapter 20, Analysis of Protein Interactions, Unit 20.2, Affinity Purification of Proteins Binding to GST Fusion Proteins.
(§3) A coupled in vitro transcription and translation system (Promega) was used according to the manufacturer's instructions to produce radiolabeled protein from cDNAs to be tested. Radiolabeled proteins were mixed with either purified GST or GST-SPATIAL. Then, GST-containing protein complexes were purified by centrifugation from the reaction mixtures using glutathione-coated Sepharose beads. Bound proteins were eluted from the beads with SDS-PAGE loading buffer heated to 72-85° C., separated on polyacrylamide gels, and visualized by autoradiography. Specific interactions between GST-SPATIAL and in vitro translated proteins were indicated by the presence of a radiolabeled in vitro translated protein in the GST-SPATIAL-containing samples, but not in the GST-alone samples.
(§4) GST pulldown assays were performed as described in Example 9 using GST-SPATIAL(L) and GST-SPATIAL(S) and each of the Uba3 mutants described in this example.

GST-SPATIAL(L) = molecular target: T2, GST-SPATIAL(L) (Mus musculus, UniProt Q7TSD4); experiment: GST pulldown assay with GST-SPATIAL long isoform; format: binding; conditions: 35S-methionine labeled in vitro translated protein
T2 construct: made in house
T2 sequence (Q7TSD4 with tags, fused parts or gaps isoform Q7TSD4-6 limits assumed): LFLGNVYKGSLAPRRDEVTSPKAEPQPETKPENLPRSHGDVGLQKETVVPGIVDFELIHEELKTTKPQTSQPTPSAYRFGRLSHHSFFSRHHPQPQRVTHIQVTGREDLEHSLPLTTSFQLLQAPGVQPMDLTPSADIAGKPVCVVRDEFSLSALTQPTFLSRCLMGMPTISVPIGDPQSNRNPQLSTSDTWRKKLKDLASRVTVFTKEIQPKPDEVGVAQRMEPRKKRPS
Experimental: as §1, §2, §3, §4

lymphoid cells = experiment: Thymocyte depletion of fetal thymic organ culture (FTOC); format: cell-based, mouse; conditions: after 14 days, flow cytometric analysis
From the text: SPATIAL expression cannot be detected in thymocytes using RT-PCR on RNA obtained from highly purified CD45+ thymocytes prepared by flow cytometer sorting from normal mice. Actin and cyclophilin mRNA was readily detected using the same RNA samples. To examine SPATIAL expression in stromal cells, thymii from day 14 mouse fetuses were harvested and cultured in fetal thymic organ culture (FTOC). The FTOC was specifically depleted of thymocytes using 2-deoxyguanosine treatment 2-deoxyguanosine is a nucleotide analog that is toxic to thymocytes. […] These cultures can be re-colonized by stem cells and are fully capable of supporting thymopoiesis (Hare et al., Semin. Immunol., 11(1):3-12, 1999). Using RT-PCR, it was shown that SPATIAL is abundantly expressed in thymic stromal cells obtained from FTOC (Flomerfelt et al., Genes and Immunity, 1:391-401, 2000).

Hb12 cells = experiment: Bcl-2 expression assay, SPATIAL-EGFP transfected Bcl-2 expressing thymocyte cell line; format: cell-based, mouse; conditions: Bcl-2 expression, FIG. 17B
Experimental: The mouse thymocyte cell line Wehi 7.2 and its variant Wbcl-2, which over expresses bcl-2, were maintained in DMEM supplemented with 10% heat-inactivated FBS, 2 mM glutamine, 100 U/ml penicillin, and 0.1 mg/ml streptomycin. Cells were grown at 37° C. in a humidified atmosphere with 5% CO2.
Transient transfections were performed using either lipids (Lipofectamine 2000 or FreeStyle 293 Expression System, each supplied by Invitrogen, Rockville, Md.) or calcium phosphate (Mammalian Transfection Kit; Stratagene, La Jolla, Calif.) or electroporation. Manufacturer instructions were followed for lipid and calcium phosphate transfections. For electroporation, the following procedure was used: Before transfection, Wehi cell and Wbcl-2 cells were counted and suspended in fresh complete DMEM without antibiotics at 5×10^5 cells/ml in a 15 cm dish. On the day of transfection, the cells were washed with PBS twice and were suspended in serum free DMEM at 6.25×10^6 cells/mL Aliquots of 800 μl cell suspension were transferred to a 4 mm electroporation cuvette and 10 μg of plasmid DNA solution was added. After 10 minutes incubation on ice, the cells were electroporated under the condition of 310 V, 725 ohms resistance, and 1050 μF capacitance. The transfected cells were incubated on ice for 10 minutes and suspended in complete DMEM in 10 cm dishes at the density of 7.5×10^4 viable cells/ml. […]

[1] = molecular target: T3, Uba3 deletion mutant Delta364-912 (mouse, UniProt Q8C878 22-462, 35S-methionine labeled); experiment: GST pulldown of 35S-labelled in vitro translated Uba3 mutant
T3 construct: Amino acids 109-291 are deleted (PstI fragment removed); also called PstI digest
Experimental: as §3, §4

Molecule: Delta364-912: Uba3 deletion mutant, amino acid deletion 109-291 (PstI digest)
- interaction with GST-SPATIAL(S) (GST-SPATIAL(S)): does not interact
- interaction with GST-SPATIAL(L) (GST-SPATIAL(L)): does not interact

Molecule: Nc1nc2c(ncn2[C@H]2C[C@H](O)[C@@H](CO)O2)c(=O)[nH]1 [2-deoxyguanosine]
- lymphoid cells depleted (lymphoid cells): greater than 98%

Molecule: Bcl-2: human Bcl-2 gene expressed in Hb12 cells, inhibits apoptosis
- reversal of growth suppressive effect of SPATIAL-EGFP transfection (Hb12 cells): ineffective to reverse the growth suppressive effect

B1: GST-SPATIAL long isoform fusion protein (other)
chain: T2 sequence (Q7TSD4 with tags, fused parts or gaps isoform Q7TSD4-6 limits assumed)
notes: SPATIAL cDNA cloned into pGEx5X1, expressed in bacteria and held on glutathione-Sepharose beads; not shown: glutathione-S-transferase (GST) encoded by the pGEx5X1 expression vector
- binding result [1]: no binding

B2: Delta941-1365: Uba3 deletion mutant, amino acid deletion 301-441 (protein)
chain: MAVDGGCGDTGDWEGRWNHVKKFLERSGPFTHPDFEPSTESLQFLLDTCKVLVIGAGGLGCELLKNLALSGFRQIHVIDMDTIDVSNLNRQFLFRPKDVGRPKAEVAAEFLNDRVPNCNVVPHFNKIQDFNDTFYRQFHIIVCGLDSIIARRWINGMLISLLNYEDGVLDPSSIVPLIDGGTEGFKGNARVILPGMTACIECTLELYPPQVNFPMCTIASMPRLPEHCIEYVRMLQWPKEQPFGDGVPLDGDDPEHIQWIFQKSIERASQYNIRGVTYRLTQGVVKRIIPAVASTNAVIA
- interaction with GST-SPATIAL(S) (GST-SPATIAL(S)): interact
- interaction with GST-SPATIAL(L) (GST-SPATIAL(L)): interact

B3: Delta24-646: Uba3 deletion mutant, amino acid deletion 1-202 (protein)
chain: TLELYPPQVNFPMCTIASMPRLPEHCIEYVRMLQWPKEQPFGDGVPLDGDDPEHIQWIFQKSIERASQYNIRGVTYRLTQGVVKRIIPAVASTNAVIAAVCATEVFKIATSAYIPLNNYLVFNDVDGLYTYTFEAERKENCPACSQLPQNIQFSPSAKLQEVLDYLTNSASLQMKSPAITATLEGKNRTLYLQSVTSIEERTRPNLSKTLKELGLVDGQELAVADVTTPQTVLFKLHFT
- interaction with GST-SPATIAL(S) (GST-SPATIAL(S)): interact
- interaction with GST-SPATIAL(L) (GST-SPATIAL(L)): interact

B4: GST-SPATIAL short isoform fusion protein (other)
chain: T1 sequence (Q7TSD4 with tags, fused parts or gaps isoform Q7TSD4-7 limits assumed)
notes: as for B1
- binding result [1]: no binding
